The source of these data is paper PMC10138814.

A value given as a limit tells only on which side of the number the result lay.

Test [1] addresses His6-SUMO-LaM8-LaM4 (llama). Kind of test: BLI; His-SUMO-tandem nanobody loaded on Ni-NTA biosensors; mCherry or DsRed in solution; 20 mM HEPES pH 7.4, 150 mM NaCl, 0.005% Tween-20; association 600 s, dissociation 600 s; 2:1 heterogeneous ligand fit; DsRed concentration calculated as a monomer.
Test [2] has as its target His6-SUMO-LaM1-LaM8 (llama). Described as above.

Chain of DsRed (Q9U6Y8 whole entry): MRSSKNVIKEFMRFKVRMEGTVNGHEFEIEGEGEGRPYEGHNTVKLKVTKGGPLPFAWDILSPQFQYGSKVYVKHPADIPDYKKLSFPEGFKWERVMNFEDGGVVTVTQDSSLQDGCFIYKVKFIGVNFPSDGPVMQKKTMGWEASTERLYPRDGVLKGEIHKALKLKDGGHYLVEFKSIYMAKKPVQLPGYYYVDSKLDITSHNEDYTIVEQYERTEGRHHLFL

“DsRed (from UniProt Q9U6Y8 1-225) (natural protein)”: in test [1], the KD2 was 4.12 nM, the KD (site 1 of the 2:1 heterogeneous ligand fit) is 2.64 nM, the kdis1 was 0.000232 s⁻¹ and the kdis2 was 8.2e-05 s⁻¹. For the same substance, in test [1], the kon2 was 19900 M⁻¹ s⁻¹ and the kon (site 1 of the 2:1 heterogeneous ligand fit) is 88100 M⁻¹ s⁻¹.
For mCherry, in test [2], the KD2 is less than 1 pM, the KD (site 1 of the 2:1 heterogeneous ligand fit) was 1.87 nM, the kdis1 is 0.000552 s⁻¹ and the kdis2 is less than 1e-07 s⁻¹. Besides, in test [2], the kon2 is 46700 M⁻¹ s⁻¹ and the kon (site 1 of the 2:1 heterogeneous ligand fit) was 296000 M⁻¹ s⁻¹. Besides, in test [1], the KD2 is 1.29 nM, the KD (site 1 of the 2:1 heterogeneous ligand fit) was 1.38 nM, the kdis1 was 0.000239 s⁻¹ and the kdis2 was 6.51e-05 s⁻¹. Further, in test [1], the kon2 was 50600 M⁻¹ s⁻¹ and the kon (site 1 of the 2:1 heterogeneous ligand fit) was 173000 M⁻¹ s⁻¹.
